Measurements: US20120251444A1 (RAPTOR PHARMACEUTICALS, published 2012)
Where a chain is given by its changes, count along the chain named. In names and notes the source's numbering stands. Where two headings read alike, the source gives them in different places. Bridge positions count the residues as written; N and C are the ends. * marks the point of attachment. Biotin = O=C1N[C@H]2[C@H](CS[C@H]2CCCCC(=O)*)N1

T1: recombinant human LRP1 cluster II (R&D Systems, amino acids 786-1165, with C-terminal Fc tag) (human, UniProt Q07954 786-1165)
T1 construct: range 786-1165; Bought from R&D Systems; coated on plates; also called LRP1-C2; not shown: C-terminal Fc tag of the bought protein
T1 sequence (looked up): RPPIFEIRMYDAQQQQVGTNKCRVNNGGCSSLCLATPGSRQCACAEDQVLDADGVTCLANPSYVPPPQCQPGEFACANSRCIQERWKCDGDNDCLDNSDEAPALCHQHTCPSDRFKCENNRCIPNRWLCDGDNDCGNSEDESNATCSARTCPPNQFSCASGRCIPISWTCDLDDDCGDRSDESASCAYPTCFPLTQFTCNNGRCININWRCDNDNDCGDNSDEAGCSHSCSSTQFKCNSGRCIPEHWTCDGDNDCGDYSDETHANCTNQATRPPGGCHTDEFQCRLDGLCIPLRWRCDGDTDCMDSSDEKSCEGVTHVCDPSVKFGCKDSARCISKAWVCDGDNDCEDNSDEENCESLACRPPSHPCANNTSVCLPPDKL

B1: mRAP-14c (peptide)
peptide: Biotin-GGSGGCEAKIEKHNHYQKQLEIAHEKLRHAESVGDGERVSRSREKHALLEGRTKELGYTVKKHGC
modifications: disulfide 6-65
notes: Cysteines at both ends are meant for cyclization by a disulfide bond
B2: RAP d3 (ligand)
chain: GLDRLRRVSHQGYSTEAEFEEPRVIDLWDLAQSANLTDKELEAFREELKHFEAKIEKHNHYQKQLEIAHEKLRHAESVGDGERVSRSREKHALLEGRTKELGYTVKKHLQDLSGRISRARHNEL
notes: also called recombinant RAP d3
B3: MegaRAP1 d3 A256K, E270K (ligand)
chain: B2 chain with S14T, E18K, H50Y, E52K
notes: also called MegaRAP1 A256K, E270K
B4: MegaRAP1 d3 K251E (ligand)
chain: B2 chain with S14T, E18K, H50Y, K57A, K71E
notes: also called MegaRAP1 K251E
B5: RAP d3 H249Y (ligand)
chain: B2 chain with H50Y
notes: also called RAP H249Y
B6: RAP d3 E251K, K270E (ligand)
chain: B2 chain with E52K, K71E
notes: also called RAP E251K, K270E
B7: RAP d3 K270E (ligand)
chain: B2 chain with K71E
notes: also called RAP K270E
B8: RAP d3 E251K, K256A, K270E (ligand)
chain: B2 chain with E52K, K57A, K71E
notes: also called RAP E251K, K256A, K270E
B9: MegaRAP1 d3 E270K (ligand)
chain: B2 chain with S14T, E18K, H50Y, E52K, K57A
notes: also called MegaRAP1 E270K
B10: MegaRAP1 d3 (ligand)
chain: B2 chain with S14T, E18K, H50Y, E52K, K57A, K71E
notes: also called RAPv2A d3; RAP v2
B11: RAP d3 K256A, K270E (ligand)
chain: B2 chain with K57A, K71E
notes: also called RAP K256A, K270E
B12: LRP1 CR3-5 (receptor)
chain: not shown
notes: domain: CR3-5; also called LRP1 CR domains
B13: MegaRAP1 d3 K251E, E270K (ligand)
chain: B2 chain with S14T, E18K, H50Y, K57A
notes: also called MegaRAP1 K251E, E270K
B14: MegaRAP1 d3 A256K (ligand)
chain: B2 chain with S14T, E18K, H50Y, E52K, K71E
notes: also called MegaRAP1 A256K
B15: RAP d3 E251K (ligand)
chain: B2 chain with E52K
notes: also called RAP E251K
B16: RAP d3 E217K (ligand)
chain: B2 chain with E18K
notes: also called RAP E217K
B17: MegaRAP1 d3 T213S (ligand)
chain: B2 chain with E18K, H50Y, E52K, K57A, K71E
notes: also called MegaRAP1 T213S
B18: LRP2 CR89 (receptor)
chain: not shown
notes: domain: CR89
B19: MegaRAP1 d3 K217E (ligand)
chain: B2 chain with S14T, H50Y, E52K, K57A, K71E
notes: also called MegaRAP1 K217E
B20: MegaRAP1 d3 Y249H (ligand)
chain: B2 chain with S14T, E18K, E52K, K57A, K71E
notes: also called MegaRAP1 Y249H
B21: mature RAP (full-length receptor-associated protein) (ligand)
chain: YSREKNQPKPSPKRESGEEFRMEKLNQLWEKAQRLHLPPVRLAELHADLKIQERDELAWKKLKLDGLDEDGEKEARLIRNLNVILAKYGLDGKKDARQVTSNSLSGTQEDGLDDPRLEKLWHKAKTSGKFSGEELDKLWREFLHHKEKVHEYNVLLETLSRTEEIHENVISPSDLSDIKGSVLHSRHTELKEKLRSINQGLDRLRRVSHQGYSTEAEFEEPRVIDLWDLAQSANLTDKELEAFREELKHFEAKIEKHNHYQKQLEIAHEKLRHAESVGDGERVSRSREKHALLEGRTKELGYTVKKHLQDLSGRISRARHNEL
notes: also called full-length RAP
B22: mRAP-8c (peptide)
peptide: GGSGGCGKHFEAKIEKHNHYQKQLEIAHEKLRHAESVGDGERVSRSREKHALLEGRTKELGYTVKKHLQDGC
modifications: N-terminal biotin (biotin-GGSGG)
notes: as for B1

Experiments:
[1] = molecular target: T1, recombinant human LRP1 cluster II (R&D …); assay: solid phase binding assay, LRP1 cluster II-Fc coated on plate
Procedure: (§1) Control wells contained no added inhibitor. Wells were washed with TBS supplemented with 5 mM CaCl₂ and 0.05% Tween-20. […] Excess HRP conjugate was removed and wells washed. Color was developed using TMB reagents (BioRad, Hercules, Calif.).

[2] = molecular target: B18; assay: solid-phase binding, OD at highest concentration against highest OD of all ligands
[3] = molecular target: B12; assay: as above
[4] = molecular target: B18; assay: solid-phase binding (OD), single-site non-linear regression
[5] = molecular target: B12; assay: as above
[6] = molecular target: B12; assay: binding titration on LRP1 CR3-5, absorbance against nM of ligand
[7] = molecular target: B18; assay: binding titration on LRP2 CR89, absorbance against nM of ligand
[8] = molecular target: B2; assay: solid-phase binding (OD), single-site non-linear regression
[9] = molecular target: B2; assay: binding titration on LRP2 CR89, absorbance against nM of ligand
[10] = molecular target: T1, recombinant human LRP1 cluster II (R&D …); assay: solid phase competition, EC50 against that of the mRAPc monomer
Procedure: as §1

[11] = molecular target: T1, recombinant human LRP1 cluster II (R&D …); assay: as above; remark: listed apart in the source
Procedure: as §1

[12] = molecular target: T1, recombinant human LRP1 cluster II (R&D …); assay: solid phase competition, inhibition of 2 nM RAP d3 binding to immobilized LRP1-C2
Procedure: as §1

[13] = molecular target: T1, recombinant human LRP1 cluster II (R&D …); assay: solid phase competition, inhibitor preincubated with immobilized LRP1-C2, then 2 nM RAP d3
Procedure: as §1

Sequence of LRP2 CR89 (P98164 1025-1102 limits assumed): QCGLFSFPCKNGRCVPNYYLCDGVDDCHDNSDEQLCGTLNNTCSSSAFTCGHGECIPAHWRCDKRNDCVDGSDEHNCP

Row | % max (percent of maximum binding) [2] [%] | % max (percent of maximum binding) [3] [%] | Kd [4] [nM] | binding result [6] | Binder | also measured
1 | – | – | – | – | B1 | Kd [1]: ~21 nM
2 | 5 | 76 | – | – | B2 | –
3 | 73 | 93 | 72 | – | B3 | Kd [5]: 4 nM
4 | 11 | 2 | – | no binding (tested: 100 nM) | B4 | –
5 | 2 | 90 | – | – | B5 | Kd [5]: 28 nM; binding result [7]: no binding (tested: 100 nM)
6 | 2 | 4 | – | no binding (tested: 100 nM) | B6 | –
7 | 2 | 4 | – | no binding (tested: 100 nM) | B7 | binding result [7]: no binding (tested: 100 nM)
8 | 40 | 2 | 114 | no binding (tested: 100 nM) | B8 | –
9 | 100 | 85 | 8 | – | B9 | Kd [5]: 114 nM
10 | 88 | 4 | 38 | no binding (tested: 100 nM) | B10 | –
11 | 3 | 2 | – | no binding (tested: 100 nM) | B11 | binding result [7]: no binding (tested: 100 nM)
12 | – | – | – | – | B12 | Kd [8]: 16 nM
13 | 16 | 16 | 153 | – | B13 | –
14 | 2 | 6 | – | no binding (tested: 100 nM) | B14 | binding result [7]: no binding (tested: 100 nM)
15 | 5 | 100 | – | – | B15 | Kd [5]: 7 nM; binding result [7]: no binding (tested: 100 nM)
16 | 5 | 91 | – | – | B16 | Kd [5]: 9 nM; binding result [7]: no binding (tested: 100 nM)
17 | 94 | 2 | 19 | no binding (tested: 100 nM) | B17 | –
18 | – | – | – | – | B18 | binding result [9]: no binding (tested: 100 nM)
19 | 88 | 2 | 25 | no binding (tested: 100 nM) | B19 | –
20 | 35 | 2 | – | no binding (tested: 100 nM) | B20 | –
21 | – | – | – | – | B21 | relative to monomer [10]: 36 fold; relative to monomer [11]: 40 fold; EC50 [12]: 0.8 nM; EC50 [13]: 0.5 nM
22 | – | – | – | – | B22 | Kd [1]: ~4 nM
